The results in this text go back to publication PMC8329073, “A kinetically controlled platform for ligand-oligonucleotide transduction”.

One data set has as its target PDGF-BB (human, UniProt P01127 82-190). The data set is described as follows: strand-displacement fluorescence (Rep-2); 50 nM PDGF; 5 mM Mg2+; 20 mM Tris-HCl pH 7.5 (22 °C), 100 mM NaCl, 0.1 mM EDTA, 5 mM MgCl2 (20 mM MgCl2 for DNAzyme), room temperature; indirect read-out by strand-displacement fluorescence. As to conditions: protein: recombinant; chain copies: 2; hairpin, 2-bp stem.

The target in the next data set is Thrombin (UniProt P00734;P00734 328-363;364-622). The data set is described as follows: strand-displacement fluorescence (Rep-2); 2-500 nM thrombin; LOD 0.96 nM; 5 mM Mg2+; 20 mM Tris-HCl pH 7.5 (22 °C), 100 mM NaCl, 0.1 mM EDTA, 5 mM MgCl2 (20 mM MgCl2 for DNAzyme), room temperature; indirect read-out by strand-displacement fluore.

Sequence of PDGF-BB (P01127 82-190): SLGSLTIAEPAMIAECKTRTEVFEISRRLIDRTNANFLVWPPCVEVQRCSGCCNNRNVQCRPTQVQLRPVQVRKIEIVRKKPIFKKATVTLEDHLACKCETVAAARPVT

B1: Apt-PDGF-2bp (structured_DNA)
DNA: ATGTCAACGTTGGCTACGGCACGTAGAGCATCACCATGATCCTTGGATAGGTAGGGTACGCT
Turning to B1, the binding result with PDGF-BB is listed as “binds”.

B2: Apt-Thr-3bp (= Apt-Thr-OR, Apt-Thr-NOT) (structured_DNA)
DNA: ATGTCAACGTTGTCCGTGGTAGGGCAGGTTGGGGTGACTTGGATAGGTAGGGTACGCT
As to B2, the binding result in the data set with Thrombin is “binds”.
